Data published in the supplement of paper PMC12455559.
± gives the standard deviation of the averaged measurements.

Assays:
[1] = PET hydrolysis, aromatic products released after 48 h (umol product/mg enzyme); higher = more PET depolymerization activity
Procedure: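 HTP-purified, SUMO-cleaved, tagless PET hydrolase candidates (5 ug, 1.43 mg/g PET) were incubated 48 h without shaking with 3.5 mg amorphous PET film (aFilm) or crystalline PET powder (cryPow) in 0.5 mL buffer: NaCitrate pH 4.5/5.5, NaPhosphate pH 6.5/7.5, glycine pH 8.5. Incubation was at 40 or 60 C. Aromatic products (TPA, MHET, BHET) in the supernatant were quantified by UV absorbance at 260/280 nm relative to buffer blanks and expressed per mg enzyme. LCC-ICCG was the positive control on every plate.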

[2] = melting temperature (DSF); higher = more thermostable
Procedure: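 Candidate PET hydrolases were expressed in E. coli C41(DE3) in 2 mL autoinduction cultures in 24-deep-well plates, Ni-bead purified and released by SUMO protease cleavage on an OT-2 robot. Yield per well was measured by BCA; values below 25 ug (0.1 mg/mL) are below the detection threshold. Melting temperature was measured by differential scanning fluorimetry with Sypro Orange, ramping from 25 C at 0.3 C/step.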

[3] = purified protein yield per well (BCA); higher = higher soluble expression
How it was run: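 Expression was done in E. coli C41(DE3), using 2 mL autoinduction cultures with 100 µg/mL kanamycin incubated at 37 °C for 2 h and at 18 °C for 40 h. Protein was purified on Ni-charged magnetic beads and released by SUMO protease cleavage. Yield of purified protein per well was measured with the Pierce Rapid Gold BCA kit; values below 25 ug (0.1 mg/mL) are below detection.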

[4] = substrate: cryPow, 40 °C, pH 4.5
[5] = substrate: cryPow, 40 °C, pH 5.5
[6] = substrate: cryPow, 40 °C, pH 6.5
[7] = substrate: cryPow, 40 °C, pH 7.5
[8] = substrate: cryPow, 60 °C, pH 4.5
[9] = substrate: cryPow, 60 °C, pH 5.5
[10] = substrate: cryPow, 60 °C, pH 6.5
[11] = substrate: cryPow, 60 °C, pH 7.5
[12] = substrate: cryPow, 40 °C, pH 8.5
[13] = substrate: aFilm, 40 °C, pH 4.5
[14] = substrate: aFilm, 40 °C, pH 5.5
[15] = substrate: aFilm, 40 °C, pH 6.5
[16] = substrate: aFilm, 40 °C, pH 7.5
[17] = substrate: aFilm, 60 °C, pH 4.5
[18] = substrate: aFilm, 60 °C, pH 5.5
[19] = substrate: aFilm, 60 °C, pH 6.5
[20] = substrate: aFilm, 60 °C, pH 7.5

Row | Sequence | PET hydrolysis [1, 4] | PET hydrolysis [1, 5] | PET hydrolysis [1, 6] | PET hydrolysis [1, 7] | melting temperature [2] [C] | purified protein yield per well [3] [µg] | PET hydrolysis [1, 8] | PET hydrolysis [1, 9] | PET hydrolysis [1, 10] | PET hydrolysis [1, 11] | PET hydrolysis [1, 12] | PET hydrolysis ([1]; substrate: cryPow, 60 °C, pH 8.5) | PET hydrolysis [1, 13] | PET hydrolysis [1, 14] | PET hydrolysis [1, 15] | PET hydrolysis [1, 16] | PET hydrolysis [1, 17] | PET hydrolysis [1, 18] | PET hydrolysis [1, 19] | PET hydrolysis [1, 20] | PET hydrolysis ([1]; substrate: aFilm, 40 °C, pH 8.5) | PET hydrolysis ([1]; substrate: aFilm, 60 °C, pH 8.5)
1 | AAAAGRADQRGPDPSVAGVAATYGPFATAQLTVPAGNGFNGGYIYYPTDTSLGTWGAVAIVPGYSALFANEEAWMGPRLASFGFVVIGIETTTRTDGADARATQLLAALDYLTQRSPVRDRVDPGRLAVMGHSAGGAGALLAAMRRPSLRAVVGLAPGSPTGLSSLSTDVVPTLFVGGQQDPTVTPSYLDNLYATLPASTQSAYVQLGGADHLFFTRANDVEIRRLVPWLKLFLDGDTRYTQFMCPTTPDTTGVSRYSAKCPLVPPGGPTGSASPSSPGASNSPSSPPASSSAPGAACVATYRTVGQWSGGFQGEVTVTAGGRPVNGWTVRWALGSGQAVSQLWNGALSTSGSAVSVRNVSYNGALAASASTTFGFLGSGTPSTPALSCTSP [ESM041] | < 3 | < 3 | < 3 | < 3 | 47.8 | 106 | – | – | – | – | – | – | – | – | – | – | – | – | – | – | – | –
2 | AADNPYQRGPDPTPASVSANRGTFATTQVAVAAGNGFGGGVIYYPTDTSQGQFGAIAVVPGYTATWAAEGAWMGHWLASFGFVVIGIDTNNRNDWDTARGTQLLAALDYLTQRSSVRDRVDATRTAVMGHSMGGGGAASASLQRPSLKASIGLAPASFSQNLTTTRVPTMLLSGQNDTTITPASVVNLYNGIPASVEKAYLELSGAGHGFPTSNNSTMMRNVIPWFKVFVDSDTRYTQFLCPLANWSGIRTYQSTCPLVPSTPPTSTTTSTTTSTTTSTTTTTTPQPVGACNATYRTTNSWPGGYQGEVTVTAGESGVNGWTTRWTLGSGQTVTQVWNGTLTVDGSTASVRNAAYNGSLPAGGSAAFGFIGGGTPPTSLTCTSP [ESM023] | < 3 | < 3 | < 3 | 5 | 55 | 221 | < 3 | < 3 | < 3 | < 3 | – | – | – | – | – | – | – | – | – | – | – | –
3 | AAGYERGPNPTSSALEATRGPFSVASTNVSSLSASGFGGGTIYYPTDTSQGTFGGVVIAPGYTASKSSMAWLAERLASHGFVVFNIDTITRSDQPDSRGRQILAAADHLAEESSSTVRRRLDASRIGVMGHSMGGGGTLAAADSRPSLKAAVPLTPWHLDKSWGNVRVPTMIIGAENDTIAAVGSHSEPFYNSLSAAPEKAYLELNGASHFAPNSDNDTIAKYGISWMKRFVDEDTRYDQFLCPAPGRSTTIEEYRSSCPHS [DP086] | – | < 3 | < 3 | < 3 | 39.1 | 90 | – | < 3 | < 3 | < 3 | < 3 | < 3 | – | – | – | – | – | – | – | – | – | –
4 | AANPYERGPAPTAASIAATTGPFAVASVSVPRGNGFGGGVIYYPTSTSQGTFGGVAISPGLNGTWAGIAWLGPRLASQGFVIFGIETNNLNDSPASRGTQLLAALDFLTRSSSVRTRVDASRLAVAGHSMGGGGALSAALQRPSLQAAIGNAPHLPSGSLATDRVPTLIYAMQNDTLVTPSRLTSLYNSMPATTERAYIEVAGAGHNYIGQPSTTLARTMIPWLKIFVDNDARYSQFLCPLSNQSGISQYRNSCPLISTTTLSTGVDSTSGLAVR [ESM157] | < 3 | 17.5 ± 2.1 | 50 | 69.5 ± 3.5 | 61 | 313 | < 3 | 3 | 7.5 ± 0.71 | 14.5 ± 0.71 | – | – | < 3 | < 3 | < 3 | < 3 | < 3 | < 3 | < 3 | < 3 | – | –
5 | AANPYERGPAPTDAVLEASRGPFATTSYSVSGLSVTGFGGGVVYYPTSTSEGTFGAIAISPGYTATWSSLSWLGPRIASHGFVVIGIETNTLLDQPDSRGRQLLAALDYLVQRSSVRGRIDAGRLAVAGHSMGGGGTLEAAAARPSLQAAVPLAPWNLDKTWSGVTVPTLIVGGESDSVAPVASHSVPFYNSIPASSEKAYLELNGASHFFPQSVNTPTAKQMVAWLKRFVDNDTRYEQFLCPGPSGLAIEEYRNTCPSS [TEP018] | < 3 | < 3 | < 3 | < 3 | 40.6 | 65.6 | < 3 | < 3 | < 3 | < 3 | – | – | – | – | – | – | – | – | – | – | – | –
6 | AANPYERGPDPTDAILEAARGPFETSRTEVPALSVTGFGGGTIYYPATTSAGTFGGVAVAPGYTADRTSLAWLAERLASHGFVVFNIDTLTRLDQPDSRGRQLLAALDYLTQRSSVRGRLDAGRLGVMGHSMGGGGTLEAARDRPSLQAAVPLTPWDLTKIWSGVRVPTMIVGAEADTIAPVASHAEPFYQSLPSSPGKAYLELNNATHFAPNVPDTTIGKYVVAWMKRFVDDDTRYTRFLCPGPSGGLTVEEYRSTCPFS [TEP194] | 5 | 8.5 ± 0.71 | 7 | 1.5 ± 2.1 | 50.8 | 325 | 3.5 ± 0.71 | 7 | 3.5 ± 0.71 | < 3 | – | – | < 3 | < 3 | < 3 | < 3 | < 3 | < 3 | 2 ± 2.8 | < 3 | – | –
7 | ADNPYERGPAPTTASIEAVRGPYAVSEYRVSSLAATGFGGGTIHYPTTTADGTFGAIAVSPGYTGTESTIAWLGPRLASQGFVVFTIETLTLFDQPDSRGRQLLAALDHLTRVSPLRGRVDSSRLGVMGHSMGGGGSLEAAKSRPSLQAAVPLTPWNLDKTWPELRTPTLVVGADGDSIAPVRSHAEPFYESLPSSLDRAYLELNGASHFAPNSPDTTIAKYSIAWLKRFIDNDTRYEQFLCPLPRPSLTIEEYRGNCPHTS [TEP138] | – | – | – | – | 36.1 | 28 | – | – | – | – | – | – | – | – | – | – | – | – | – | – | – | –
8 | ADSPYQRGPDPTPASVAATRGPFATTQATVPAGNGFNGGYVYYPTDTSQGTWGAVAIVPGYSALFANEEAWMGPWLASFGFVVIGIETNSRTDGADARATQLLAALDYLTRTSPIRDRVDANRLGVMGHSAGGAGTLLAALRRPTLKTAVGLAPGTPGNNLNMSTTQVPTMLLSGQNDGTVTPTYVQGIYNTLPAGVEHAWAELAGNDHLSFTRSNPTEMRLLIPWLKTFLDNDTRYTQFLCPLANSTGVSRYNATCPLVPPDGPTSPPTTTPPTSAPPTTSAPTTPPPSGATCTATYRTVNSWSGGFQGEVTVTAGAAALNGWTVRWESNNGQSISQVWNGTLSTSGSTATVRNVSYNGSLAAGATTTFGFLSSGTPAATSPTCASP [ESM051] | – | – | – | – | 54.4 | 27.3 | – | – | – | – | – | – | – | – | – | – | – | – | – | – | – | –
9 | FSATGPSAPCSNCTRGPAPTVTALKASTGPFTTAKFSVSGFLKGYGDSTVYYPTNTTGKMGAIAVIPGYLSYESSIDWWGPRLASHGFVVMTMNTKTIYDQPDSRASQLSEALDYLIAQSKSSSSPLYNKIDSTRLGAIGWSMGGGGSLKLATQRSINAIIPQAPWYLGSSAFSGIKTPTLILACSADTVAPVAQHASPFYNQIPNSTPKAFLEIYGGSHFCANSGYPNQDMLGMYGIAWMKRFIDFDSRYSQFLCGPNHESDYAISDYRENCPY [ESM055] | – | – | – | – | 55.3 | 28.9 | – | – | – | – | – | – | – | – | – | – | – | – | – | – | – | –
10 | MSNPYQRGPNPTRSALTADGPFSVATYTVSRLSVSGFGGGVIYYPTGTSLTFGGIAMSPGYTADASSLAWLGRRLASHGFVVLVINTNSRFDGPDSRASQLSAALNYLRTSSPSAVRARLDANRLAVAGHSMGGGGTLRIAEQNPSLKAAVPLTPWHTDKTFNTSVPVLIVGAEADTVAPVSQHAIPFYQNLPSTTPKVYVELCNASHIAPNSNNAAISVYTISWMKLWVDNDTRYRQFLCNVNDPALCDFRTNNRHCQLEHHHHHH [LCC-ICCG] | 20.1 ± 5.3 | 51.5 ± 15 | 94.5 ± 18 | 130 ± 20 | 93.6 | – | 56.2 ± 7.2 | 121 ± 18 | 208 ± 33 | 236 ± 3 | 113 ± 14 | – | 8.5 ± 1.9 | 17.4 ± 9.2 | 38.1 ± 12 | 58.9 ± 20 | 60.8 ± 8 | 448 | 820 ± 23 | 965 ± 100 | 73 ± 30 | 584
11 | TADSSYQRGPAPTEASVRADRGPFQVARVNVPGAGFGSGTIYYPTDTSQGTFGGVAVSPGFLSPEILIAWLGPRLASHGFVVITFTTNTPTDQPDSRGSQLLAALDYLTTQSPTAVRQRLDNTRLSVIGHSMGGGGALRAANDRPDLQAAVPLGPYHTTKDWSGVRVPTMIIGGQYDSIAPNDQHSERFYNSLDSAPEKAYLRVTGTTHITVGTGTPGVGKYVLSWLKRFVDDDTRYDQFLCPTPSGPDVVEYHSTCPHA [TEP009] | – | – | – | – | 49.3 | 28.4 | – | – | – | – | – | – | – | – | – | – | – | – | – | – | – | –
12 | TNPAPPSTPNPPAEESPYVRGPNPTVSFLEARSGPLSVRTSRVSSLVSGFGGGTIHYPTGTTGTMGAVVVIPGFVSAESSIDWWGPKLASHGFVVLTIDTNTGFDQPPSRARQINNALDYLVSQNSSRTSPVRGMIDTNRLGVIGWSMGGGGTLRVASEGRIKAAIPLAPWDTVSSYAANAQAPTLIFACQADIVAPVAAHASPFYNRLPNSIDKAYVEISGGSHYCANGGGLNNNVLSRFGVSWMKRFLDEDTRYSQFLCGPNHRSDRDIADYRGNCP [ESM172] | – | – | – | – | 49 | 26 | – | – | – | – | – | – | – | – | – | – | – | – | – | – | – | –
13 | VPVVPAQQENPYQRGPDPTPESVEAPRGSFAIEKATIARGSVQGFGGGTIYYPTDTAEGTFGAVAISPGFTESQSAISWYGERLATQGFVVFTIDTNGGLDQPDSRADQLLAALDFLTGSSEVKDRIDASRLGVLGHSMGGGGSLSAAKKRPALQAAVPLAPWHTNSNWSDVTVPTLIVGAENDAVAPVGMHAEPFYAGLTKAPEKAYLELKGADHFVTNSPNTVIAKSTLSWLKRFIDDDTRYDQFLCPPPKPDNDISEYRDTCPN [DP051] | – | < 3 | < 3 | < 3 | – | < 25 | – | – | – | – | < 3 | – | – | – | – | – | – | – | – | – | – | –
